# Data as given in patent US20190177431A1 (FUDAN UNIVERSITY, published 2019).
# Experiments:
# [1] = biological target: T1, human TF on the cell surface of tumor cells (human, UniProt P13726 33-295); experiment: flow cytometry on MDA-MB-231 cells, antibody at 1 µg/mL
# T1 construct: whole, on cells; Endogenous TF on TF-positive human tumor cell lines; also called cell surface TF
# Experimental: (§1) The cells were washed with PBS twice to remove the unbound primary antibody, and the target cells were incubated with 200 μL PE-labeled secondary antibody (2 μg/mL) at 4° C. for 30 min. The cells were washed with PBS twice to remove the unbound secondary antibody, and finally the cells were re-suspended in 400 μL PBS.
# [2] = biological target: T2, extracellular domain of human TF protein (human, UniProt P13726 34-251); experiment: ELISA, coated TF extracellular domain
# T2 construct: range 34-251; Limits 34-251 are stated for the immunogen; also called the extracellular domain protein of TF; TF antigen
# Experimental: The antigen (the extracellular domain protein of TF) was diluted to 0.5 μg/mL with a coating solution, and was used to coat an ELISA plate overnight, at 100 μL/well and 4° C. The excessive antigen was removed by washing. The plate was blocked with 2% BSA at room temperature for 2 h, and then each of the 3-fold serial diluted monoclonal antibodies was added at 100 μL/well, and was incubated for 2 h at room temperature. The unbound antibodies were removed by washing, and an appropriate concentration of horseradish peroxidase-labeled anti-mouse secondary antibody was added at 100 μL/well, and incubated for 1 h at room temperature. The unbound secondary antibody was removed by washing, TMB chromogenic solution was added, and the color was developed to an appropriate color depth. 2M H₂SO₄ was added at 50 μL/well, to stop the chromogenic reaction, the absorbance at 450 nm was then determined, and the data was analyzed.
# Firstly, the 20 humanized antibodies were determined for their affinity for the extracellular domain protein of TF by ELISA binding assay (The experimental method refers to Step \textcircled{4} of Example 1).
# [3] = biological target: T1, human TF on the cell surface of tumor …; experiment: flow cytometry on MDA-MB-231 cells, antibody at 10 µg/mL; design: reference not given here
# Experimental: as §1
MFI [1],EC50 [2] [nM],MFI [3],Binder
2970,0.0128,3350,"TF-mAb-H42 (antibody, V domains shown, Humanized) VH: QVQLVQSGAEVKKPGASVKVSCKASGYSFISYWMNWVRQAPGQGLEWIGMIYPADSETRLNQKFKDRATLTVDKSTSTAYMELSSLRSEDTAVYYCAREDYGSSDYWGQGTTVTVSS VL: DIQLTQSPSSLSASVGDRVTITCSASSSVSYMNWYQQKPGKSPKIWIYGISNLASGVPSRFSGSGSGTDFTLTISSLQPEDFATYYCQQKSSFPWTFGGGTKVEIK"
2820,0.0116,3300,"TF-mAb-H43 (antibody, V domains shown, Humanized) VH: QVQLVQSGSELKKPGASVKVSCKASGYSFISYWMNWVRQAPGQGLEWIGMIYPADSETRLNQKFKDRAVLSVDKSVSTAYLQICSLKAEDTAVYYCAREDYGSSDYWGQGTTVTVSS VL: DIQLTQSPSSLSASVGDRVTITCSASSSVSYMNWYQQKPGKSPKIWIYGISNLASGVPSRFSGSGSGTDFTLTISSLQPEDFATYYCQQKSSFPWTFGGGTKVEIK"
2930,0.0147,3240,"TF-mAb-H30 (antibody, V domains shown, Humanized) VH: EVQLVQSGAEVKKPGESLKISCKGSGYSFTSYWMNWVRQMPGKGLEWMGMIYPADSETRLNQKFKDKATLSVDKSISTAYLQWSSLKASDTAMYYCAREDYGSSDYWGQGTTVTVSS VL: EIVLTQSPATLSLSPGERATLSCSASSSVSYMNWYQQKPGQAPRIWIYGISNLASGIPARFSGSGSGTDFTLTISSLEPEDFAVYYCQQKSSFPWTFGGGTKVEIK"
3100,0.0138,3480,"TF-mAb-H45 (antibody, V domains shown, Humanized) VH: EVQLVQSGAEVKKPGESLKISCKGSGYSFTSYWMNWVRQMPGKGLEWMGMIYPADSETRLNQKFKDKATLSVDKSISTAYLQWSSLKASDTAMYYCAREDYGSSDYWGQGTTVTVSS VL: EIVLTQSPDFQSVTPKEKVTITCSASSSVSYMNWYQQKPDQSPKIWIYGISNLASGVPSRFSGSGSGTDFTLTINSLEAEDAATYYCQQKSSFPWTFGGGTKVEIK"
2400,0.0168,3010,"TF-mAb-H32 (antibody, V domains shown, Humanized) VH: QVQLVQSGAEVKKPGASVKVSCKASGYSFISYWMNWVRQAPGQGLEWIGMIYPADSETRLNQKFKDRATLTVDKSTSTAYMELSSLRSEDTAVYYCAREDYGSSDYWGQGTTVTVSS VL: EIVLTQSPATLSLSPGERATLSCSASSSVSYMNWYQQKPGQAPRIWIYGISNLASGIPARFSGSGSGTDFTLTISSLEPEDFAVYYCQQKSSFPWTFGGGTKVEIK"
2870,0.0178,3150,"TF-mAb-H38 (antibody, V domains shown, Humanized) VH: QVQLVQSGSELKKPGASVKVSCKASGYSFISYWMNWVRQAPGQGLEWIGMIYPADSETRLNQKFKDRAVLSVDKSVSTAYLQICSLKAEDTAVYYCAREDYGSSDYWGQGTTVTVSS VL: EIVLTQSPATLSLSPGERATLSCSASSSVSYMNWYQQKPGQSPRIWIYGISNLASGVPARFSGSGSGTDFTLTISSLEPEDFAVYYCQQKSSFPWTFGGGTKVEIK"
3180,0.0131,3310,"TF-mAb-H40 (antibody, V domains shown, Humanized) VH: EVQLVQSGAEVKKPGESLKISCKGSGYSFTSYWMNWVRQMPGKGLEWMGMIYPADSETRLNQKFKDKATLSVDKSISTAYLQWSSLKASDTAMYYCAREDYGSSDYWGQGTTVTVSS VL: DIQLTQSPSSLSASVGDRVTITCSASSSVSYMNWYQQKPGKSPKIWIYGISNLASGVPSRFSGSGSGTDFTLTISSLQPEDFATYYCQQKSSFPWTFGGGTKVEIK"
2930,0.0105,3020,"TF-mAb-H35 (antibody, V domains shown, Humanized) VH: EVQLVQSGAEVKKPGESLKISCKGSGYSFTSYWMNWVRQMPGKGLEWMGMIYPADSETRLNQKFKDKATLSVDKSISTAYLQWSSLKASDTAMYYCAREDYGSSDYWGQGTTVTVSS VL: EIVLTQSPATLSLSPGERATLSCSASSSVSYMNWYQQKPGQSPRIWIYGISNLASGVPARFSGSGSGTDFTLTISSLEPEDFAVYYCQQKSSFPWTFGGGTKVEIK"
3180,0.0125,3380,"TF-mAb-H39 (antibody, V domains shown, Humanized; also called humanized antibody TF-mAb-H39) VH: EVQLVQSGAEVKKPGESLKISCKGSGYSFTSYWMNWVRQMPGKGLEWMGMIYPADSETRLNQKFKDQATLSVDKSISTAYLQWSSLKASDTAMYYCAREDYGSSDYWGQGTTVTVSS VL: DIQLTQSPSSLSASVGDRVTITCSASSSVSYMNWYQQKPGKSPKIWIYGISNLASGVPSRFSGSGSGTDFTLTISSLQPEDFATYYCQQKSSFPWTFGGGTKVEIK"
3200,0.012,3430,"TF-mAb-H44 (antibody, V domains shown, Humanized; also called humanized antibody TF-mAb-H44) VH: EVQLVQSGAEVKKPGESLKISCKGSGYSFTSYWMNWVRQMPGKGLEWMGMIYPADSETRLNQKFKDQATLSVDKSISTAYLQWSSLKASDTAMYYCAREDYGSSDYWGQGTTVTVSS VL: EIVLTQSPDFQSVTPKEKVTITCSASSSVSYMNWYQQKPDQSPKIWIYGISNLASGVPSRFSGSGSGTDFTLTINSLEAEDAATYYCQQKSSFPWTFGGGTKVEIK"
3040,0.0234,3090,"TF-mAb-H36 (antibody, V domains shown, Humanized) VH: EVQLVQSGAEVKKPGESLKISCKGSGYSFTSYWMNWVKQMPGKGLEWMGMIYPADSETRLNQKFKDKATLSVDKSISTAYLQWSSLKASDTAMYYCAREDYGSSDYWGQGTTVTVSS VL: EIVLTQSPATLSLSPGERATLSCSASSSVSYMNWYQQKPGQSPRIWIYGISNLASGVPARFSGSGSGTDFTLTISSLEPEDFAVYYCQQKSSFPWTFGGGTKVEIK"
3000,0.0134,3610,"TF-mAb-H41 (antibody, V domains shown, Humanized) VH: EVQLVQSGAEVKKPGESLKISCKGSGYSFTSYWMNWVKQMPGKGLEWMGMIYPADSETRLNQKFKDKATLSVDKSISTAYLQWSSLKASDTAMYYCAREDYGSSDYWGQGTTVTVSS VL: DIQLTQSPSSLSASVGDRVTITCSASSSVSYMNWYQQKPGKSPKIWIYGISNLASGVPSRFSGSGSGTDFTLTISSLQPEDFATYYCQQKSSFPWTFGGGTKVEIK"
2960,0.0178,3580,"TF-mAb-H29 (antibody, V domains shown, Humanized) VH: EVQLVQSGAEVKKPGESLKISCKGSGYSFTSYWMNWVRQMPGKGLEWMGMIYPADSETRLNQKFKDQATLSVDKSISTAYLQWSSLKASDTAMYYCAREDYGSSDYWGQGTTVTVSS VL: EIVLTQSPATLSLSPGERATLSCSASSSVSYMNWYQQKPGQAPRIWIYGISNLASGIPARFSGSGSGTDFTLTISSLEPEDFAVYYCQQKSSFPWTFGGGTKVEIK"
3080,0.0145,3470,"TF-mAb-H31 (antibody, V domains shown, Humanized) VH: EVQLVQSGAEVKKPGESLKISCKGSGYSFTSYWMNWVKQMPGKGLEWMGMIYPADSETRLNQKFKDKATLSVDKSISTAYLQWSSLKASDTAMYYCAREDYGSSDYWGQGTTVTVSS VL: EIVLTQSPATLSLSPGERATLSCSASSSVSYMNWYQQKPGQAPRIWIYGISNLASGIPARFSGSGSGTDFTLTISSLEPEDFAVYYCQQKSSFPWTFGGGTKVEIK"
2420,0.0189,2840,"TF-mAb-H33 (antibody, V domains shown, Humanized) VH: QVQLVQSGSELKKPGASVKVSCKASGYSFISYWMNWVRQAPGQGLEWIGMIYPADSETRLNQKFKDRAVLSVDKSVSTAYLQICSLKAEDTAVYYCAREDYGSSDYWGQGTTVTVSS VL: EIVLTQSPATLSLSPGERATLSCSASSSVSYMNWYQQKPGQAPRIWIYGISNLASGIPARFSGSGSGTDFTLTISSLEPEDFAVYYCQQKSSFPWTFGGGTKVEIK"
2460,0.0154,3270,"TF-mAb-H34 (antibody, V domains shown, Humanized) VH: EVQLVQSGAEVKKPGESLKISCKGSGYSFTSYWMNWVRQMPGKGLEWMGMIYPADSETRLNQKFKDQATLSVDKSISTAYLQWSSLKASDTAMYYCAREDYGSSDYWGQGTTVTVSS VL: EIVLTQSPATLSLSPGERATLSCSASSSVSYMNWYQQKPGQSPRIWIYGISNLASGVPARFSGSGSGTDFTLTISSLEPEDFAVYYCQQKSSFPWTFGGGTKVEIK"
2460,0.0173,2990,"TF-mAb-H37 (antibody, V domains shown, Humanized) VH: QVQLVQSGAEVKKPGASVKVSCKASGYSFISYWMNWVRQAPGQGLEWIGMIYPADSETRLNQKFKDRATLTVDKSTSTAYMELSSLRSEDTAVYYCAREDYGSSDYWGQGTTVTVSS VL: EIVLTQSPATLSLSPGERATLSCSASSSVSYMNWYQQKPGQSPRIWIYGISNLASGVPARFSGSGSGTDFTLTISSLEPEDFAVYYCQQKSSFPWTFGGGTKVEIK"
